Data on 1 molecule can be found in paper PMC5134428.

This test has as its target trypsin from porcine pancreas (porcine) (UniProt P00761).
Sequence of UniProt P00761 (P00761 9-231): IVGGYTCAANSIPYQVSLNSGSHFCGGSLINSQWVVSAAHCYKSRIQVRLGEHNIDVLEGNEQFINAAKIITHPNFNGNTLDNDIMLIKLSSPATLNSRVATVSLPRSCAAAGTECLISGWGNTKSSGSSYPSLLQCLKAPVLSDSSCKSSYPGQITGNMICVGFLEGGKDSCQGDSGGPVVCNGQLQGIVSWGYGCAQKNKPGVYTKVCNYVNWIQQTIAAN

B1: Bowman Birk inhibitor (BBI) from soybean (natural protein)
chain: DDESSKPCCDQCACTKSNPPQCRCSDMRLNSCHSACKSCICALSYPAQCFCVDITDFCYEPCKPSEDDKEN
Take B1: the IC50 of inhibition of trypsin activity (cleavage of the Arg6-Cys peptide, read by fluorescence of dC12-AgNCs-peptide/GO at 635 nm; 37 °C, 20 min, 2.0 mM phosphate buffer pH 7.4) came out at 3.6 ng∙mL^−1.
